Values of other authors, collected in paper PMC3867676.

Legend:
TRAIL (Homo sapiens) = TRAIL (Homo sapiens) (UniProt P50591)
RANKL (Homo sapiens) = RANKL (Homo sapiens) (UniProt O14788)
Chain of UniProt O14788 (O14788 140-317): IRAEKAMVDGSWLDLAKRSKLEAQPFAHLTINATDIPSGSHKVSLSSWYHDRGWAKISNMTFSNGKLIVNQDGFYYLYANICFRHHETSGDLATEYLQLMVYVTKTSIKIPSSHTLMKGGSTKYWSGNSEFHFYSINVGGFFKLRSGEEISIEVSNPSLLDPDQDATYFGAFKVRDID

Chain of UniProt P50591 (P50591 whole entry): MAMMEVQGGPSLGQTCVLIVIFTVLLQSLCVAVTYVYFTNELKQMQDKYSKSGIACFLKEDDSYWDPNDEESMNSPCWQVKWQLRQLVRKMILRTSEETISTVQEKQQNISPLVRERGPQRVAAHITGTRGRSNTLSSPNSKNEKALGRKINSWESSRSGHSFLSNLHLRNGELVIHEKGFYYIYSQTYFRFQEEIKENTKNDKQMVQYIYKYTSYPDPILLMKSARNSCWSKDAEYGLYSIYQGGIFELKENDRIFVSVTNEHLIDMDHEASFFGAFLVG

Kd (TRAIL (Homo sapiens)): 45 nM
Kd (RANKL (Homo sapiens)): 23 nM
Substance: OPG (from UniProt O00300)
